Laboratory results as given in US20150246947A1 (BAXALTA, published 2015).
Like-named read-outs stand apart in the source and are kept apart here.

What was measured:
human Protein S [1] = molecular target: T1, human Protein S (human, UniProt P07225 42-676); experiment: cell-based or functional assay
T1 sequence: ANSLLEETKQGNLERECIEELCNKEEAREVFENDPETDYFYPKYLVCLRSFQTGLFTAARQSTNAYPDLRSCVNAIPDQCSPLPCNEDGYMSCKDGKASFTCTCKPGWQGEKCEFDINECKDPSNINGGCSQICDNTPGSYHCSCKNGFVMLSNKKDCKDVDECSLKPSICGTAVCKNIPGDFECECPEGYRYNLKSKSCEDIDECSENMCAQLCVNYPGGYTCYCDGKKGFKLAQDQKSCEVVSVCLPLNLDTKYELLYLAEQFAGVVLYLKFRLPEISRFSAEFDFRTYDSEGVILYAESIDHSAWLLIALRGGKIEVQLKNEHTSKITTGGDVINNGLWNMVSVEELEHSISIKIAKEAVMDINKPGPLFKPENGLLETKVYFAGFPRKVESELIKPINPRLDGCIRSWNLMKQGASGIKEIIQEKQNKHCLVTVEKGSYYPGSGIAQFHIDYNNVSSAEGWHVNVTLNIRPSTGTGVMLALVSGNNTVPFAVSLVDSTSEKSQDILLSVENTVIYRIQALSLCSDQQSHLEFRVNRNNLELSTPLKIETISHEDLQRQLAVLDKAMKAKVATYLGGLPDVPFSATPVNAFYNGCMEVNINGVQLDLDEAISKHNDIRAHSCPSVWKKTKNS

human Protein S [2] = molecular target: T1, human Protein S; experiment: LANCE TR-FRET competition; Eu-labeled Protein S; competitor tracer JBS0684
Description: Peptides also were characterized in a competition, homogenous europium-based TR-FRET assay (LANCE IC50 assay) using JBS0684 as a tracer (i.e., competitor for Protein S binding). The following reagents were mixed together in a Perkin-Elmer ProxiPlate MTP well (indicated concentration is the final concentration): Eu-labeled Protein S (10 nM), Ulight™-labeled Streptavidin (100 nM), tracer (JBS0684 (300 nM)), and peptide (titrated in three-fold dilution steps). The final volume was 50 μl/well. The reaction mix was incubated for 1 hour at room temperature, then the fluorescence emission at 665 nm was recorded on a multi-mode reader (SpectraMax® M5, Molecular Devices) using the following instrument settings: Ex 340 nm, Em 665 nm, delay 50 μsec, integration 100 μsec, reads 100. Binding of tracer peptides to soluble europium-labeled Protein S was detected by Streptavidin labeled with an acceptor fluorophor (ULight™). Inhibition of tracer-binding to Protein S by a non-biotinylated peptide results in a decrease of TR-FRET between the Eu-labeled Protein S and ULight™-labeled Streptavidin. IC50 values were obtained from peptide titration curves at constant tracer concentration using non-linear regression of the fluorescence emission signals at 665 nm.
Several peptides having multiple substitutions in the JBS2572 amino acid sequence were synthesized and evaluated using LANCE IC50 and CAT assays described above. For the assays, pooled normal plasma was supplemented with 3 nM APC and triggered with 6 pM TF, and 15 μM phospholipids (DOPC/POPS 80/20). Stock APC was diluted with TF-PL-MIX to 24 nM (plasma concentration: 3 nM).

human Protein S [3] = molecular target: T1, human Protein S; experiment: LANCE TR-FRET; peptide added to preformed C4BP/Protein S complex; competitor C4BP
Description: To investigate the effect of the peptides described herein on PS/C4BP complexes, a LANCE IC50 assay was established using methods similar to those described above. JBS2572 or JBS3216 was added to a preformed C4BP/PS complex. Changes in the complex concentration were followed by recording the TR-FRET signal. For both peptides, a time- and concentration-dependent dissociation of the C4BP/PS complex was observed. […] The time-dependency of the complex reduction was similar for both peptides. After two hours of incubation in the presence of 100 nM JBS2572 or JBS3216, the C4BP/PS complex was reduced to 60% and 50%, respectively. In addition, binding of biotinylated JBS2572 to Protein S was inhibited by C4BP in the LANCE IC50 assay. Pull-down experiments where JBS2697 was coupled to streptavidin sepharose and incubated for one hour at room temperature with (a) Protein S (1.6 pmol) (b) C4BP (8.5 pmol) and (c) Protein S (1.6 pmol)+C4BP (8.5 pmol) supported the results from the modified LANCE IC50 assay. JBS2697 interacted with free Protein S only from experiment (a) with Protein S alone and from experiment (c) with the C4BP-Protein S mixture.

human Protein S [4] = molecular target: T1, human Protein S; experiment: cell-based or functional assay; remark: listed apart in the source
human Protein S [5] = molecular target: T1, human Protein S; experiment: competition ELISA IC50
Description: The competition (IC50) ELISA was performed using biotinylated tracer peptide JBS0684 to compete for Protein S-binding with candidate peptides. Peptides that compete with the tracer bind the same region of Protein S as the tracer (and each other). Ninety-six well PolySorp plates (Nunc) were coated with 3 μg/mL Protein S in coating buffer (15 mM Na₂CO₃, 35 mM NaHCO₃, pH 9.6) over night. […] Plates were then washed three times with HNaT. JBS0684 was applied at a concentration corresponding to the EC90 value determined in the binding ELISA. A competitor stock solution of peptide (10 mM) was diluted 1/33.3 in HNaT without HSA, and a serial 1/3 dilution was prepared with HNaT with 3% DMSO. The dilution was further diluted with the biotinylated tracer peptide in a ratio of […] (20 μl competitor dilution and 100 μl tracer peptide). The mixture of competitor and tracer peptide was applied to the Protein S-coated microtiter plate and incubated for 1.5 hours. The plates were washed three times with HNaT. Peptide-Protein S binding was detected by applying HRP-conjugated streptavidin to the microtiter plate, incubating the mixture for one hour, washing the plate three times with HNaT, applying TMB (3,3′5,5′-Tetramethylbenzidin), and detecting the subsequent chromogenic conversion of TMB by HRP. IC50 measurements of peptides are provided herein (see, e.g., Table 3). […]

human Protein S [6] = molecular target: T1, human Protein S; experiment: cell-based or functional assay; remark: listed apart in the source

- CAT EC50 (human Protein S [1]): 151 nM
- IC50 (human Protein S [2]): 9.7 nM
- IC50 (human Protein S [3]): 2 nM
- CAT EC50 (human Protein S [4]): 14 nM
- fold increase in affinity compared to JBS2512 (human Protein S [5]): 1.6 fold
- fold increase of activity in the CAT-assay compared to JBS2512 (human Protein S [6]): 1.6 fold
Binder: Ac-TGLVSAGWYDYNFDHYREFT-NH2 (also called parent peptide JBS2572) [JBS2572]
